Literature values as cited in paper PMC2962622.

Molecular target: NIFK 44-residue phosphopeptide (Homo sapiens) (UniProt Q9BYG3)
Sequence of UniProt Q9BYG3 (Q9BYG3 2-293): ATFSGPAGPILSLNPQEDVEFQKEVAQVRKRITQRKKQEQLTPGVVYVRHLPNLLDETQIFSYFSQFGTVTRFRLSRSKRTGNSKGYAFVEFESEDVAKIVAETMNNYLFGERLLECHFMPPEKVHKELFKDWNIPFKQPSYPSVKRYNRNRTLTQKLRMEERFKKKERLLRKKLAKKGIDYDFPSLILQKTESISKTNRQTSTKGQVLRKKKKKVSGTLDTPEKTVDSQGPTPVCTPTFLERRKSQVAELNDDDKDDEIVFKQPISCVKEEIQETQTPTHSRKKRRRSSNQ

**Q.** Which Kd does the source give for Ki67 FHA (from UniProt P46013) here?
**A.** 77 nM
